The text below walks through data of patent US20250197451A1 (CAPITAL MEDICAL UNIVERSITY SCHOOL OF STOMATOLOGY, published 2025).

T1 sequence (Q15910 whole entry): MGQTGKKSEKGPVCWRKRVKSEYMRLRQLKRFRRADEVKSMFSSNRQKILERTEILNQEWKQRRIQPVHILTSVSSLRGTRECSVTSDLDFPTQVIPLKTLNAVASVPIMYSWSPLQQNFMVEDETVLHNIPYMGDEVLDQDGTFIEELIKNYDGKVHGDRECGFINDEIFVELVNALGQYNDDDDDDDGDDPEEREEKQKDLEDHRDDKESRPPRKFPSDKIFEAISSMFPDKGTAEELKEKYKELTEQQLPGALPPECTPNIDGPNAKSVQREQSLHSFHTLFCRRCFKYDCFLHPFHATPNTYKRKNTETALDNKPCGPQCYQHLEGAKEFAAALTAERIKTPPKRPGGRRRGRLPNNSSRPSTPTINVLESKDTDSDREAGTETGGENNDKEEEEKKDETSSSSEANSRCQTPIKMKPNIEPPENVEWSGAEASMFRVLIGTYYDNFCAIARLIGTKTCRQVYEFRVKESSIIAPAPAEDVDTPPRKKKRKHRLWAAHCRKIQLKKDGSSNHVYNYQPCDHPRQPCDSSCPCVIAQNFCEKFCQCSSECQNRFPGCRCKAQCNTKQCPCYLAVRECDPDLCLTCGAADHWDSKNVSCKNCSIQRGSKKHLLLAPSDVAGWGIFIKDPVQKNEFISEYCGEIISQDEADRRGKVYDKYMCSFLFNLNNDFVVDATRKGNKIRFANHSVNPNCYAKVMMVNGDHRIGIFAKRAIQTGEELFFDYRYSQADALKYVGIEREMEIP

The test addresses T1, biotin-labelled EZH2 protein (UniProt Q15910 1-746, limits assumed, biotin label (EZ-link NHS-PEO4-Biotinylation kit)).
T1 construct: Probe in solution (1 ug/ml) on the KDM2B peptide microarray; also called NHS-PEO4-Biotinylation-labelled EZH2 protein; recombinant protein
Description: KDM2B peptide array probed with biotin-EZH2 1 ug/ml, SA-HRP/ECL.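 Also: Background-corrected optical density of each spot on the membrane, given as percent of the brightest spot (100%), color developed for 5 minutes; 100% is the highest background-corrected spot optical density on the membrane.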
Description: After blocking, the polypeptide microarray was incubated with biotin-labeled target protein for hybridization, visualized with the chemical chromogenic substrate and imaged using a Chempchemi digital imager. The image of colored polypeptide microarray was analyzed for the optical density of the colored points. Particularly, the optical density of each colored point was calculated using the optical density of the respective surrounding background as a reference for background correction. The highest optical density value of the colored point on membrane was set to 100%, and the optical density value of the remaining colored points was converted into percentages relative to the highest value. The points with an optical density percentage of more than 30% on the polypeptide membrane and also with an optical density percentage of less than 30% on the negative membrane were defined as positive colored points.
For the hybridization experiment, a solution of NHS-PEO4-Biotinylation-labelled EZH2 protein (1 μg/ml) was used for the hybridization of the polypeptide microarray. Streptavidin-HRP was used to amplify the reaction signal according to the experimental procedure and conditions described above, and the time of color development was 5 minutes.
With LKDAQMRDLLSPPTD [peptide 238], the “Intensity (%)” value was determined as 0.62%.

On to LIFREKDGLGIKMPD [peptide 22], for which the “Intensity (%)” value was 2.54%.

For RFSKGLNGTPRELRH [peptide 200], the “Intensity (%)” value amounted to 0.91%.

With LRSPPRVISRPPPSV [peptide 204], the “Intensity (%)” value was 1.91%.

RTLDVQWVEGLKDAQ [peptide 236]: the “Intensity (%)” value stood at 2.1%.

As for HREVWMAVFSYLSHQ [peptide 214], the “Intensity (%)” value is 0%.

For KDGLGIKMPDPDFTV [peptide 23], the “Intensity (%)” value came to 0%.

In the case of VTDQSINLLTAVGTT [peptide 251], the “Intensity (%)” value came out at 0%.

IKMPDPDFTVRDVKL [peptide 24]: the “Intensity (%)” value is 0%.

With PPPSVSPPKCIQMER [peptide 206], the “Intensity (%)” value stood at 1.29%.

In the case of AAHVMHREVWMAVFS [peptide 213], the “Intensity (%)” value was 11.8%.

For DLCVCMRVCRTWNRW [peptide 217], the “Intensity (%)” value was 0.19%.

On to SPPTDNRPGQMDNRS [peptide 240], for which the “Intensity (%)” value was 0%.

Consider PLDDGAAHVMHREVW [peptide 212], for which the “Intensity (%)” value was found to be 0%.

HMPLLSKLHLSYCNH [peptide 248]: the “Intensity (%)” value was 1.15%.

On to SYCNHVTDQSINLLT [peptide 250], for which the “Intensity (%)” value worked out at 0%.

As for QWVEGLKDAQMRDLL [peptide 237], the “Intensity (%)” value came to 1.18%.

As for TVVDLVDWVDNMWPQ [peptide 39], the “Intensity (%)” value was determined as 0.27%.

KLRNIVELRLAGLDI [peptide 243]: the “Intensity (%)” value was found to be 0.92%.

Take DLNHCKSITPLMLSG [peptide 222]: the “Intensity (%)” value came to 0%.

Turning to QRDKLYNVISLEFSH [peptide 34], the “Intensity (%)” value amounted to 0%.

Turning to VELRLAGLDITDASL [peptide 244], the “Intensity (%)” value worked out at 0.9%.

RYCKQVTKEGCEQFI [peptide 261]: the “Intensity (%)” value amounted to 5.21%.

Consider LSGCSWIAVSALCSS [peptide 232], for which the “Intensity (%)” value amounted to 95.4%.

Consider NRLPGLRDLVLSGCS [peptide 230], for which the “Intensity (%)” value stood at 7.03%.

Take MAVFSYLSHQDLCVC [peptide 215]: the “Intensity (%)” value is 2.82%.

Take RLVDVMDVNTQKGTE [peptide 28]: the “Intensity (%)” value was determined as 0%.

RKRHAAEKQKKKTVI [peptide 4]: the “Intensity (%)” value is 0%.

With VDWVDNMWPQHLKEK [peptide 40], the “Intensity (%)” value was 0%.

For the molecule CCDKRLWTRIDLNHC [peptide 220], the “Intensity (%)” value was 4.32%.

On to LWTRIDLNHCKSITP [peptide 221], for which the “Intensity (%)” value came out at 4.09%.

With MRDLLSPPTDNRPGQ [peptide 239], the “Intensity (%)” value was determined as 1%.

As for MSMSQFVRYYETPEA [peptide 31], the “Intensity (%)” value was 19.2%.

Consider LRDLVLSGCSWIAVS [peptide 231], for which the “Intensity (%)” value is 100%.

For the molecule LMLSGIIRRQPVSLD [peptide 224], the “Intensity (%)” value worked out at 0%.

Turning to LEFSHTKLEHLVKRP [peptide 36], the “Intensity (%)” value amounted to 0.89%.

On to LVKRPTVVDLVDWVD [peptide 38], for which the “Intensity (%)” value amounted to 0%.

As to YNVISLEFSHTKLEH [peptide 35], the “Intensity (%)” value amounted to 5.95%.

Take SKLHLSYCNHVTDQS [peptide 249]: the “Intensity (%)” value worked out at 0%.

Regarding QLGPSLRSPPRVISR [peptide 203], the “Intensity (%)” value worked out at 0%.

Regarding PPDSLPLDDGAAHVM [peptide 211], the “Intensity (%)” value came out at 0%.

Take CHIDLRYCKQVTKEG [peptide 260]: the “Intensity (%)” value came out at 22.3%.

Regarding RDVKLLVGSRRLVDV [peptide 26], the “Intensity (%)” value was determined as 0.36%.

As for INLLTAVGTTTRDSL [peptide 252], the “Intensity (%)” value came out at 0.22%.

For TKLEHLVKRPTVVDL [peptide 37], the “Intensity (%)” value was determined as 0.73%.

For RLIIRHMPLLSKLHL [peptide 247], the “Intensity (%)” value turned out to be 3.66%.

Turning to SDCNKVTDQCLSFFK [peptide 256], the “Intensity (%)” value worked out at 5.43%.

Regarding SPPKCIQMERHVIRP [peptide 207], the “Intensity (%)” value turned out to be 0%.

For the molecule ALRVPLIFREKDGLG [peptide 21], the “Intensity (%)” value is 21.1%.

Regarding SCPLLRTLDVQWVEG [peptide 235], the “Intensity (%)” value worked out at 2.02%.

Consider QKGTEMSMSQFVRYY [peptide 30], for which the “Intensity (%)” value worked out at 1.2%.

For WIAVSALCSSSCPLL [peptide 233], the “Intensity (%)” value is 34.8%.

As to SVQFGQVEEKLLQKL [peptide 265], the “Intensity (%)” value was found to be 2.09%.

MDNRSKLRNIVELRL [peptide 242]: the “Intensity (%)” value came to 0.64%.

For PVSLDLSWTNISKKQ [peptide 226], the “Intensity (%)” value came out at 0.51%.

MDVNTQKGTEMSMSQ [peptide 29]: the “Intensity (%)” value was 5.32%.

Consider RCGNICHIDLRYCKQ [peptide 259], for which the “Intensity (%)” value was found to be 1.36%.

Take EDHPPRKRHAAEKQK [peptide 3]: the “Intensity (%)” value was 0%.

For the molecule ALCSSSCPLLRTLDV [peptide 234], the “Intensity (%)” value came to 3.59%.

Take PDFTVRDVKLLVGSR [peptide 25]: the “Intensity (%)” value is 0.02%.

On to YLSHQDLCVCMRVCR [peptide 216], for which the “Intensity (%)” value was determined as 0%.

As to LVGSRRLVDVMDVNT [peptide 27], the “Intensity (%)” value came out at 0%.

Take AGLDITDASLRLIIR [peptide 245]: the “Intensity (%)” value turned out to be 0.31%.

With AEMSVSVQFGQVEEK [peptide 264], the “Intensity (%)” value was 2.91%.

For the molecule MRVCRTWNRWCCDKR [peptide 218], the “Intensity (%)” value was 2.93%.
